The values below come from patent US20210032299A1 (Eli Lilly, published 2021).

Test in all cases: cell-based or functional assay
The target of one experiment is human glucagon receptor (human, UniProt P47871 26-477).
The target in experiment [1] is T1, human glucose-dependent insulinotropic peptide receptor (human, UniProt P48546 22-466).
T1 sequence (looked up): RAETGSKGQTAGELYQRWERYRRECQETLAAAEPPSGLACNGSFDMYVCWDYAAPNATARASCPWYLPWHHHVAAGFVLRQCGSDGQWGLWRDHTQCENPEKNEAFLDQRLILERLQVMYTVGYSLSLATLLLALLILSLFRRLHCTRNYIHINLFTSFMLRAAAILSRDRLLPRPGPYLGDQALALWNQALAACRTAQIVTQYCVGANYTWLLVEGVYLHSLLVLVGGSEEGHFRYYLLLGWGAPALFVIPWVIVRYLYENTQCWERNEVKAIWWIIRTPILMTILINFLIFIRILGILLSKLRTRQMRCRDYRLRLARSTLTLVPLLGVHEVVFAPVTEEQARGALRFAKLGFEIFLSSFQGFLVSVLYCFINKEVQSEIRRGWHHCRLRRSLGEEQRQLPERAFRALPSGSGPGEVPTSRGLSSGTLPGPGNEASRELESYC

In the next experiment the target is human GLP-1 receptor (human, UniProt P43220 24-463).

Numbering of substitutions follows the chain as printed. Starred links: 1 amine or outer side, 2 acyl side, 3 side chain; linkers in the order of their positions; H or OH if unused. Non-standard residues stand in square brackets, D forms with d. Groups on a side chain read outwards from the residue. No end group written: not given here. *: point of attachment. C20 diacid = O=C(O)CCCCCCCCCCCCCCCCCCC(=O)*; C18 diacid = O=C(O)CCCCCCCCCCCCCCCCC(=O)*; αMePhe(2-F) = C[C@](N)(Cc1ccccc1F)C(=O)O; γGlu = O=C(O)[C@H](CCC(=O)[*:2])N[*:1]; αMeF = C[C@](N)(Cc1ccccc1)C(=O)O; 4Pal = N[C@@H](Cc1ccncc1)C(=O)O; AEEA = NCCOCCOCC(=O)O; Aib = CC(C)(N)C(=O)O

Sequence of human glucagon receptor (P47871 26-477): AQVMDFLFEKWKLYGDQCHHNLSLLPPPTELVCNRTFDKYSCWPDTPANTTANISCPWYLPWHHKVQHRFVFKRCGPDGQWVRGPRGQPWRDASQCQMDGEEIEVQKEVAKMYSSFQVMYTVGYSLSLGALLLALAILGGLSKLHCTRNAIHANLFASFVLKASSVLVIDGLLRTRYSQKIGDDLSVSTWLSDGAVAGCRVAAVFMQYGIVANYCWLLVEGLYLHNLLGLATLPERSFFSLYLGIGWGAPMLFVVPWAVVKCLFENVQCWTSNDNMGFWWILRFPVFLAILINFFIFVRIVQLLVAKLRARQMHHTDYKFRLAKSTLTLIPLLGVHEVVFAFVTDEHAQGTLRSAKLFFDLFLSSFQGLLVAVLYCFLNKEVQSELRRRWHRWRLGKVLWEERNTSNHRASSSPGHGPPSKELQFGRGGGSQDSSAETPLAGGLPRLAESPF

B1: Example 27 (peptide)
peptide: YXEGTFISDYSILLDKKAQXEFVQWLLAGGPSSGAPPPS
modifications: D-Ala2; K17((2-[2-(2-Amino-ethoxy)-ethoxy]-acetyl)2-(γ-Glu)-CO-(CH2)16-CO2H); Aib20; C-terminal amide
As for B1, the “hGcgR cAMP Rel EC50” value with human glucagon receptor is greater than 5000 nM. Also, the “hGIPR cAMP Rel EC50” value in experiment [1] worked out at 0.0132 nM. Besides, the “hGLP1R cAMP Rel EC50” value with human GLP-1 receptor is greater than 5000 nM.

B2: Example 28 (peptide)
peptide: B1 peptide with Q24N, A28E
modifications: D-Ala2; K17((2-[2-(2-Amino-ethoxy)-ethoxy]-acetyl)2-(γ-Glu)-CO-(CH2)16-CO2H); Aib20; C-terminal amide
On to B2, for which the “hGcgR cAMP Rel EC50” value with human glucagon receptor was greater than 5000 nM. For the same molecule, the “hGIPR cAMP Rel EC50” value in experiment [1] was 0.0118 nM. Also, the “hGLP1R cAMP Rel EC50” value in the experiment with human GLP-1 receptor is greater than 5000 nM.

B3: Example 29 (peptide)
peptide: B1 peptide with Q24E
modifications: D-Ala2; K17((2-[2-(2-Amino-ethoxy)-ethoxy]-acetyl)2-(γ-Glu)-CO-(CH2)16-CO2H); Aib20; C-terminal amide
Take B3: the “hGcgR cAMP Rel EC50” value in the experiment with human glucagon receptor is greater than 5000 nM. The “hGIPR cAMP Rel EC50” value in experiment [1] was 0.00679 nM. For the same molecule, in the experiment with human GLP-1 receptor, the “hGLP1R cAMP Rel EC50” value is greater than 5000 nM.

B4: Example 24 (peptide)
peptide: Y[Aib]EGTFISDYSI[Aib]LDKK([AEEA-AEEA-γGlu-C18 diacid])HQ[Aib]DFVE[4Pal]LLAGGPSSGAPPPS-NH2
modifications: N-terminus assumed
SMILES: CC[C@H](C)[C@H](NC(=O)[C@H](Cc1ccccc1)NC(=O)[C@@H](NC(=O)CNC(=O)[C@H](CCC(=O)O)NC(=O)C(C)(C)NC(=O)[C@@H](N)Cc1ccc(O)cc1)[C@@H](C)O)C(=O)N[C@@H](CO)C(=O)N[C@@H](CC(=O)O)C(=O)N[C@@H](Cc1ccc(O)cc1)C(=O)N[C@@H](CO)C(=O)N[C@H](C(=O)NC(C)(C)C(=O)N[C@@H](CC(C)C)C(=O)N[C@@H](CC(=O)O)C(=O)N[C@@H](CCCCN)C(=O)N[C@@H](CCCCNC(=O)COCCOCCNC(=O)COCCOCCNC(=O)CC[C@H](NC(=O)CCCCCCCCCCCCCCCCC(=O)O)C(=O)O)C(=O)N[C@@H](Cc1c[nH]cn1)C(=O)N[C@@H](CCC(N)=O)C(=O)NC(C)(C)C(=O)N[C@@H](CC(=O)O)C(=O)N[C@@H](Cc1ccccc1)C(=O)N[C@H](C(=O)N[C@@H](CCC(=O)O)C(=O)N[C@@H](Cc1ccncc1)C(=O)N[C@@H](CC(C)C)C(=O)N[C@@H](CC(C)C)C(=O)N[C@@H](C)C(=O)NCC(=O)NCC(=O)N1CCC[C@H]1C(=O)N[C@@H](CO)C(=O)N[C@@H](CO)C(=O)NCC(=O)N[C@@H](C)C(=O)N1CCC[C@H]1C(=O)N1CCC[C@H]1C(=O)N1CCC[C@H]1C(=O)N[C@@H](CO)C(N)=O)C(C)C)[C@@H](C)CC
B4: the “hGcgR cAMP Rel EC50” value with human glucagon receptor was greater than 5000 nM. In addition, in experiment [1], the “hGIPR cAMP Rel EC50” value was found to be 0.0699 nM. For the same molecule, in the experiment with human GLP-1 receptor, the “hGLP1R cAMP Rel EC50” value was greater than 5000 nM.

B5: Example 23 (peptide)
peptide: Y[Aib]EGT[αMeF]ISDYSIALDKK([AEEA-AEEA-γGlu-C18 diacid])HQ[Aib]DFVE[4Pal]LLAGGPSSGAPPPS-NH2
modifications: N-terminus assumed
SMILES: CC[C@H](C)[C@H](NC(=O)[C@H](CO)NC(=O)[C@H](Cc1ccc(O)cc1)NC(=O)[C@H](CC(=O)O)NC(=O)[C@H](CO)NC(=O)[C@@H](NC(=O)[C@](C)(Cc1ccccc1)NC(=O)[C@@H](NC(=O)CNC(=O)[C@H](CCC(=O)O)NC(=O)C(C)(C)NC(=O)[C@@H](N)Cc1ccc(O)cc1)[C@@H](C)O)[C@@H](C)CC)C(=O)N[C@@H](C)C(=O)N[C@@H](CC(C)C)C(=O)N[C@@H](CC(=O)O)C(=O)N[C@@H](CCCCN)C(=O)N[C@@H](CCCCNC(=O)COCCOCCNC(=O)COCCOCCNC(=O)CC[C@H](NC(=O)CCCCCCCCCCCCCCCCC(=O)O)C(=O)O)C(=O)N[C@@H](Cc1c[nH]cn1)C(=O)N[C@@H](CCC(N)=O)C(=O)NC(C)(C)C(=O)N[C@@H](CC(=O)O)C(=O)N[C@@H](Cc1ccccc1)C(=O)N[C@H](C(=O)N[C@@H](CCC(=O)O)C(=O)N[C@@H](Cc1ccncc1)C(=O)N[C@@H](CC(C)C)C(=O)N[C@@H](CC(C)C)C(=O)N[C@@H](C)C(=O)NCC(=O)NCC(=O)N1CCC[C@H]1C(=O)N[C@@H](CO)C(=O)N[C@@H](CO)C(=O)NCC(=O)N[C@@H](C)C(=O)N1CCC[C@H]1C(=O)N1CCC[C@H]1C(=O)N1CCC[C@H]1C(=O)N[C@@H](CO)C(N)=O)C(C)C
In the case of B5, the “hGcgR cAMP Rel EC50” value in the experiment with human glucagon receptor is greater than 5000 nM. For the same molecule, the “hGIPR cAMP Rel EC50” value in experiment [1] was 0.0192 nM. In the experiment with human GLP-1 receptor, the “hGLP1R cAMP Rel EC50” value turned out to be 206 nM.

B6: Example 26 (peptide)
peptide: Y[Aib]EGT[αMePhe(2-F)]ISDYSIALDKK([AEEA-AEEA-γGlu-C20 diacid])HQ[Aib]EFVNWLLAGGPSSGAPPPS-NH2
modifications: N-terminus assumed
SMILES: CC[C@H](C)[C@H](NC(=O)[C@H](CO)NC(=O)[C@H](Cc1ccc(O)cc1)NC(=O)[C@H](CC(=O)O)NC(=O)[C@H](CO)NC(=O)[C@@H](NC(=O)[C@](C)(Cc1ccccc1F)NC(=O)[C@@H](NC(=O)CNC(=O)[C@H](CCC(=O)O)NC(=O)C(C)(C)NC(=O)[C@@H](N)Cc1ccc(O)cc1)[C@@H](C)O)[C@@H](C)CC)C(=O)N[C@@H](C)C(=O)N[C@@H](CC(C)C)C(=O)N[C@@H](CC(=O)O)C(=O)N[C@@H](CCCCN)C(=O)N[C@@H](CCCCNC(=O)COCCOCCNC(=O)COCCOCCNC(=O)CC[C@H](NC(=O)CCCCCCCCCCCCCCCCCCC(=O)O)C(=O)O)C(=O)N[C@@H](Cc1c[nH]cn1)C(=O)N[C@@H](CCC(N)=O)C(=O)NC(C)(C)C(=O)N[C@@H](CCC(=O)O)C(=O)N[C@@H](Cc1ccccc1)C(=O)N[C@H](C(=O)N[C@@H](CC(N)=O)C(=O)N[C@@H](Cc1c[nH]c2ccccc12)C(=O)N[C@@H](CC(C)C)C(=O)N[C@@H](CC(C)C)C(=O)N[C@@H](C)C(=O)NCC(=O)NCC(=O)N1CCC[C@H]1C(=O)N[C@@H](CO)C(=O)N[C@@H](CO)C(=O)NCC(=O)N[C@@H](C)C(=O)N1CCC[C@H]1C(=O)N1CCC[C@H]1C(=O)N1CCC[C@H]1C(=O)N[C@@H](CO)C(N)=O)C(C)C
For the molecule B6, the “hGcgR cAMP Rel EC50” value in the experiment with human glucagon receptor is greater than 5000 nM. For the same molecule, the “hGIPR cAMP Rel EC50” value in experiment [1] amounted to 0.00991 nM. In the experiment with human GLP-1 receptor, the “hGLP1R cAMP Rel EC50” value worked out at 5.69 nM.

B7: Example 25 (peptide)
peptide: Y[Aib]EGT[αMeF]ISDYSIALDKK([AEEA-AEEA-γGlu-C20 diacid])HQ[Aib]EFVNWLLAGGPSSGAPPPS-NH2
modifications: N-terminus assumed
SMILES: CC[C@H](C)[C@H](NC(=O)[C@H](CO)NC(=O)[C@H](Cc1ccc(O)cc1)NC(=O)[C@H](CC(=O)O)NC(=O)[C@H](CO)NC(=O)[C@@H](NC(=O)[C@](C)(Cc1ccccc1)NC(=O)[C@@H](NC(=O)CNC(=O)[C@H](CCC(=O)O)NC(=O)C(C)(C)NC(=O)[C@@H](N)Cc1ccc(O)cc1)[C@@H](C)O)[C@@H](C)CC)C(=O)N[C@@H](C)C(=O)N[C@@H](CC(C)C)C(=O)N[C@@H](CC(=O)O)C(=O)N[C@@H](CCCCN)C(=O)N[C@@H](CCCCNC(=O)COCCOCCNC(=O)COCCOCCNC(=O)CC[C@H](NC(=O)CCCCCCCCCCCCCCCCCCC(=O)O)C(=O)O)C(=O)N[C@@H](Cc1c[nH]cn1)C(=O)N[C@@H](CCC(N)=O)C(=O)NC(C)(C)C(=O)N[C@@H](CCC(=O)O)C(=O)N[C@@H](Cc1ccccc1)C(=O)N[C@H](C(=O)N[C@@H](CC(N)=O)C(=O)N[C@@H](Cc1c[nH]c2ccccc12)C(=O)N[C@@H](CC(C)C)C(=O)N[C@@H](CC(C)C)C(=O)N[C@@H](C)C(=O)NCC(=O)NCC(=O)N1CCC[C@H]1C(=O)N[C@@H](CO)C(=O)N[C@@H](CO)C(=O)NCC(=O)N[C@@H](C)C(=O)N1CCC[C@H]1C(=O)N1CCC[C@H]1C(=O)N1CCC[C@H]1C(=O)N[C@@H](CO)C(N)=O)C(C)C
B7: the “hGcgR cAMP Rel EC50” value with human glucagon receptor is greater than 5000 nM. The “hGIPR cAMP Rel EC50” value in experiment [1] was determined as 0.0155 nM. The “hGLP1R cAMP Rel EC50” value with human GLP-1 receptor turned out to be 8.39 nM.
